Results reported in the supplement of paper PMC10567573.
± gives the standard deviation.

Assay: protein stability index of a GFP-peptide fusion (GPS, HEK-293T) (PSI 1-6); higher = more stable
Conditions: c terminus: a fixed tail appended
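Note: 24-mer peptide tiles fused after GFP, lentivirally expressed, FACS-sorted into six equal bins by GFP/DsRed ratio, decoded by Illumina sequencing, PSI is the read-weighted mean bin number.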

Sequence | protein stability index (treatment: DMSO) | protein stability index (treatment: MLN4924 1 uM, 8 h)
GGRPGGRGAPAVQQNIPSTLLQDH [WAS] | 4.81 ± 0.13 | 4.77 ± 0.23
GPLFNFDVHDDVRLLSDATVEKDE [FAM50A] | 5.23 ± 0.17 | 5.43 ± 0.11
VVGLHAASKDPREVREARDHKEPK [EHMT1] | 5.06 ± 0.13 | 5.11 ± 0.052
PANSETSDLTLYLVVAVAAVSCVF [PCDHGA10] | 2.69 ± 0.61 | 2.59 ± 0.54
TLQHWPHIIRIGDLKPTGEIPKQV [DENND6A] | 2.3 ± 0.29 | 2.74 ± 0.24
ERTSPGAIHYCASTSEESWTDSEV [SPDEF] | 5.25 ± 0.058 | 4.97 ± 0.18
ESLEDVAMYISQEEWGHQDPSKRA [ZNF263] | 4.99 ± 0.069 | 5.03 ± 0.26
LLFMTSRVRFGQQKRYQDWFQRQY [INTS3] | 1.99 ± 0.58 | 2.24 ± 0.64
CPPPPGPAAAPEGDWARLLEQMGA [ZBED3] | 3.53 ± 0.18 | 3.58 ± 0.84
LKQLKHPNLVNLIEVFRRKRKMHL [CDKL4] | 2.44 ± 0.43 | 2.58 ± 0.3
SNIDKKFSAHYDAVEAELKSSTVG [FAM50A] | 4.64 ± 0.18 | 4.83 ± 0.28
IKDKEAPLHVAQTRLYLRSHRPNM [TEKT4] | 3.23 ± 0.25 | 3.23 ± 0.25
SVTKEGLELPEDEEEKKKMEESKA [HSP90AB1] | 5.68 ± 0.32 | 5.54 ± 0.39
FGNRIKVLRSRIRFIHLVTGCVLG [POMT2] | 2.57 ± 0.38 | 2.23 ± 0.45
DTTRVENLIKSENYGKILVEKNEH [R3HDM1] | 4.46 ± 0.089 | 4.4 ± 0.1
QQLYYTEADYEDDSKIAFLMQLQD [IQUB] | 3.45 ± 0.54 | 3.48 ± 0.51
WAQLEAPARLLLQALQAGPEGARR [FANCE] | 2.78 ± 0.37 | 3.08 ± 0.29
RARRTEISKNSEKKMESEEDSNWE [GOLPH3L] | 5.43 ± 0.49 | 5.35 ± 0.44
YVALQTKGALQKKPLYVAFSFMYI [KCNK9] | 3.44 ± 0.89 | 2.85 ± 0.8
PARLLLQALQAGPEGARRGLGVLR [FANCE] | 2.67 ± 0.16 | 2.82 ± 0.34
FPKDTLMNLHVYISEHEHFTDFNA [CLPTM1] | 2.37 ± 0.24 | 1.99 ± 0.42
LQALDPQQCVDKESSLGSESEEEE [SLC22A15] | 5.56 ± 0.28 | 5.59 ± 0.1
AHQQKKHSGFEDELSEVLENQSSQ [CHGA] | 5.28 ± 0.26 | 5.25 ± 0.34

Sequence | protein stability index (treatment: DMSO) | protein stability index (treatment: MLN4924 1 uM, 8 h)
KVMKQPRCGVPDVAQFVLTEGNPR [MMP1] | 3.32 ± 0.1 | 3.38 ± 0.17
PFSFGTLSSWELEAWYEDLQEVLS [DDIT3] | 2.37 ± 0.54 | 2.78 ± 0.21
FSAYIDSMAAVPTLELCHDELFAD [CEBPD] | 3.29 ± 0.37 | 3.1 ± 0.3
ESLKVIGRGAFGEVRLVQKKDTGH [STK38L] | 4.69 ± 0.17 | 4.63 ± 0.19
TGKAPSPRAAHACATVGNRGFVFG [KLHDC2] | 2.38 ± 0.11 | 2.21 ± 0.19
EERQAAQNECQVLKLLNHPNVIEY [NEK8] | 4.01 ± 0.16 | 4.29 ± 0.11
ATEPATCFPSTQKPTEPSVPVQPL [FBF1] | 4.9 ± 0.099 | 4.96 ± 0.1
GGSHPSRPNSRHTPSFSGDSSSSC [VDR] | 4.75 ± 0.28 | 4.73 ± 0.19
LEEDLYELFKKDPGFDRGQFHKQI [PI4K2A] | 3.56 ± 0.14 | 3.56 ± 0.19
APSNSTSLNSTFGSTNLTGLFFPP [NFE2L1] | 3.32 ± 0.26 | 3.08 ± 0.29
PGGGRGALLDQIRQGIQLNKTPGA [WAS] | 5.3 ± 0.1 | 4.99 ± 0.47
DKLRALKSQRQPRTSPSCAFRSDD [CDC14A] | 4.14 ± 0.23 | 4.15 ± 0.11
VFLASGAVSVMKKCRKLEDPQSSS [SLC19A2] | 2.81 ± 0.043 | 2.98 ± 0.15
QFHDLMELFRIGGKSPDTNYLFMG [PPP2CA] | 2.53 ± 0.58 | 2.24 ± 0.39
PEKASELSQVELQAAPGALPVSSP [TRIM55] | 5.21 ± 0.38 | 5.49 ± 0.24
DMLLEKLPQVAEEISGPLTSANKI [FLOT1] | 4.15 ± 0.19 | 4.43 ± 0.16
ELLTLVNRKVSQRRVDFCKDPSAI [CASP6] | 2.22 ± 0.36 | 2.24 ± 0.14
NDFGVFLCKLFPFLQKSSVGITVL [EDNRA] | 2.88 ± 0.52 | 3.26 ± 0.73
KEEKCQGKGDDSETDKNNCSNAKA [KCNA4] | 5.49 ± 0.088 | 5.55 ± 0.19
EMWADQLTSLKDLYKSLKTLSAEL [CEP70] | 2.3 ± 0.18 | 2.1 ± 0.25
IEKEVFPIMAKEGQLYAMELQGFW [GMPPB] | 2.77 ± 0.44 | 2.27 ± 0.37
ANLPVPTIAAIDGLALGGGLELAL [AUH] | 2.35 ± 0.37 | 2.02 ± 0.55
